Source: the supplement of paper PMC10126150
± gives the standard deviation of the averaged measurements.
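Note: ATP exposure 15 min at 22 °C before imaging.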

The sequences below were run on ATP (assay: switch fluorescence ratio, 500 uM ATP over buffer (Cy3 cluster intensity, sum of 5 cycles each) (fold (ratio)); higher = stronger signal-on switching upon ATP binding; sequences stand for … in TCGTCGGCAGCGTCAGATGTGTATAAGAGACAGTTTTTTTTTTTTTTTTTTTTTTTTT…TC). Settings: aptamer strand: ATP DNA aptamer (quencher-CACCTGGGGGAGTATTGCGGAGGAAGG + anchor), 100 nM annealed; ATP concentration: 500 uM.
In short: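 Five buffer/ATP imaging cycles were run on Cy3-labelled switching-strand clusters on a modified Illumina MiSeq flow-cell, with NaOH stripping and re-annealing between cycles. In each cycle, clusters annealed to 100 nM quencher-labelled ATP aptamer were imaged in selection buffer, then after 15 min with 500 uM ATP at 22 °C. Per cluster, the fluorescence ratio is summed target-cycle over summed buffer-cycle Cy3 intensity, averaged per switch-domain sequence. Only clusters within 100-1000 RFU were kept.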
ACGTTTGAGG gave a switch fluorescence ratio of 0.988 ± 0.014.
For ACGTTTGAGT, the switch fluorescence ratio was 0.99 ± 0.016.
ACTAAGAGGG gave a switch fluorescence ratio of 1.048 ± 0.0032.
ACTAAGGCTC was tested, and the switch fluorescence ratio was 1.04 ± 0.051.
ACTAAGGGG gave a switch fluorescence ratio of 1.25 ± 0.35.
Sequence ACTAATCGTG has a switch fluorescence ratio of 1.02 ± 0.011.
For ACTAATTGA, the switch fluorescence ratio was 0.996 ± 0.027.
For ACTACGATAT, the switch fluorescence ratio was 1.34 ± 0.022.
ACTACGCCCG was tested, and the switch fluorescence ratio was 1.37 ± 0.085.
With ACTACTACCA the switch fluorescence ratio was 1.31 ± 0.048.
ACTAGACTAG showed a switch fluorescence ratio of 0.984 ± 0.044.
In the case of ACTAGGGGGG, the switch fluorescence ratio is reported as 1.01 ± 0.022.
For ACTAGGGTAT, the switch fluorescence ratio was 0.982 ± 0.061.
Work on ACTAGGGTGC yielded a switch fluorescence ratio of 1.14 ± 0.014.
In the case of ACTAGGGTTG, the switch fluorescence ratio is reported as 0.993 ± 0.02.
ACTAGGTATT was tested, and the switch fluorescence ratio was 1.03 ± 0.033.
For ACTAGGTCAT, the switch fluorescence ratio was 1.03 ± 0.017.
ACTAGGTGGG gave a switch fluorescence ratio of 1.01 ± 0.041.
Sequence ACTAGTAGTC has a switch fluorescence ratio of 0.994 ± 0.012.
With ACTAGTGCGG the switch fluorescence ratio was 1.01 ± 0.028.
Sequence ACTAGTTGTC has a switch fluorescence ratio of 0.991 ± 0.033.
Sequence ACTATATGAT has a switch fluorescence ratio of 1.08 ± 0.043.
In the case of ACTATATTGG, the switch fluorescence ratio is reported as 1.065 ± 0.0095.
ACTATCGGTT showed a switch fluorescence ratio of 1.07 ± 0.075.
In the case of ACTATGCTTT, the switch fluorescence ratio is reported as 1.021 ± 0.0059.
With ACTATGGATG the switch fluorescence ratio was 1.02 ± 0.036.
Sequence ACTATGGGGG has a switch fluorescence ratio of 0.995 ± 0.036.
ACTATGTAGG showed a switch fluorescence ratio of 0.979 ± 0.013.
For ACTATTGGTA, the switch fluorescence ratio was 1.03 ± 0.046.
For ACTATTTGCA, the switch fluorescence ratio was 1.019 ± 0.0057.
ACTCAATGCA gave a switch fluorescence ratio of 1.06 ± 0.045.
For ACTCACGGGA, the switch fluorescence ratio was 1.46 ± 0.36.
Work on ACTCAGCGCG yielded a switch fluorescence ratio of 1.08 ± 0.029.
With ACTCATATAT the switch fluorescence ratio was 1.02 ± 0.0045.
Work on ACTCATGACG yielded a switch fluorescence ratio of 1.045 ± 0.0025.
With ACTCATTTAC the switch fluorescence ratio was 1.21 ± 0.096.
Sequence ACTCGATACG has a switch fluorescence ratio of 1.07 ± 0.037.
With ACTCGGACCG the switch fluorescence ratio was 1.0425 ± 0.00055.
Work on ACTCGGGGTG yielded a switch fluorescence ratio of 0.998 ± 0.025.
Work on ACTCGGTGGG yielded a switch fluorescence ratio of 1.01 ± 0.035.
Work on ACTCGGTTTG yielded a switch fluorescence ratio of 0.949 ± 0.067.
ACTCGTTGTC showed a switch fluorescence ratio of 1.02 ± 0.035.
Work on ACTCGTTTCG yielded a switch fluorescence ratio of 1 ± 0.013.
Sequence ACTCTAGGTG has a switch fluorescence ratio of 3.47 ± 0.091.
For ACTCTGGGTC, the switch fluorescence ratio was 1.07 ± 0.016.
In the case of ACTCTGGTCA, the switch fluorescence ratio is reported as 0.986 ± 0.027.
Work on ACTCTGTTTT yielded a switch fluorescence ratio of 1.01 ± 0.012.
For ACTCTTACTT, the switch fluorescence ratio was 1.157 ± 0.0042.
With ACTCTTAGGG the switch fluorescence ratio was 1.03 ± 0.027.
For ACTCTTTCGG, the switch fluorescence ratio was 1 ± 0.063.
In the case of ACTGAGTGGC, the switch fluorescence ratio is reported as 1.06 ± 0.029.
In the case of ACTGATACGT, the switch fluorescence ratio is reported as 1.12 ± 0.017.
ACTGATGAAG gave a switch fluorescence ratio of 0.991 ± 0.049.
ACTGCAAGGA showed a switch fluorescence ratio of 1.029 ± 0.0078.
ACTGCGAATA was tested, and the switch fluorescence ratio was 1.41 ± 0.021.
ACTGCTGGGA was tested, and the switch fluorescence ratio was 1.01 ± 0.015.
Work on ACTGGATCAC yielded a switch fluorescence ratio of 1.099 ± 0.0035.
Sequence ACTGGATTGG has a switch fluorescence ratio of 1.01 ± 0.042.
ACTGGATTTG showed a switch fluorescence ratio of 0.9885 ± 0.002.
Sequence ACTGGCATCC has a switch fluorescence ratio of 1.08 ± 0.029.
Work on ACTGGCGGCG yielded a switch fluorescence ratio of 1 ± 0.012.
In the case of ACTGGCGTGC, the switch fluorescence ratio is reported as 1.04 ± 0.07.
Sequence ACTGGGAGTG has a switch fluorescence ratio of 1 ± 0.042.
ACTGGGATC was tested, and the switch fluorescence ratio was 1.01 ± 0.019.
Work on ACTGGGATCA yielded a switch fluorescence ratio of 1.03 ± 0.02.
ACTGGGGAGG showed a switch fluorescence ratio of 1.01 ± 0.022.
ACTGGGGGAA showed a switch fluorescence ratio of 0.97 ± 0.018.
For ACTGGGGGAG, the switch fluorescence ratio was 1.02 ± 0.015.
In the case of ACTGGTTATC, the switch fluorescence ratio is reported as 1.02 ± 0.046.
ACTGGTTATT gave a switch fluorescence ratio of 1 ± 0.016.
Work on ACTGGTTCGT yielded a switch fluorescence ratio of 0.998 ± 0.012.
For ACTGTAAGGC, the switch fluorescence ratio was 1.07 ± 0.02.
Sequence ACTGTAATTC has a switch fluorescence ratio of 1.19 ± 0.041.
ACTGTAATTT showed a switch fluorescence ratio of 1.18 ± 0.027.
ACTGTACGCA gave a switch fluorescence ratio of 1.51 ± 0.086.
Work on ACTGTGCACC yielded a switch fluorescence ratio of 1.05 ± 0.052.
ACTGTGCCGG showed a switch fluorescence ratio of 1.02 ± 0.043.
Work on ACTGTGGGGC yielded a switch fluorescence ratio of 0.9788 ± 0.0057.
With ACTGTGTTAT the switch fluorescence ratio was 0.983 ± 0.02.
With ACTGTTAGTA the switch fluorescence ratio was 1.01 ± 0.011.
With ACTGTTATAT the switch fluorescence ratio was 1.044 ± 0.0053.
With ACTTAAAAAC the switch fluorescence ratio was 1.08 ± 0.055.
With ACTTACGGCG the switch fluorescence ratio was 1.168 ± 0.0051.
For ACTTAGCAGG, the switch fluorescence ratio was 1.08 ± 0.013.
For ACTTAGGCG, the switch fluorescence ratio was 1.05 ± 0.086.
ACTTAGGGGG was tested, and the switch fluorescence ratio was 1.01 ± 0.024.
ACTTCAGGGA was tested, and the switch fluorescence ratio was 1.01 ± 0.024.
ACTTCGGGGC was tested, and the switch fluorescence ratio was 1.12 ± 0.027.
With ACTTGAACGG the switch fluorescence ratio was 1.16 ± 0.034.
ACTTGAAGGT gave a switch fluorescence ratio of 1.02 ± 0.017.
In the case of ACTTGCTTTA, the switch fluorescence ratio is reported as 1.04 ± 0.017.
Sequence ACTTGGGAAT has a switch fluorescence ratio of 1.03 ± 0.02.
With ACTTGTGAAG the switch fluorescence ratio was 1.0247 ± 0.00063.
Sequence ACTTGTGCAG has a switch fluorescence ratio of 0.978 ± 0.026.
In the case of ACTTGTGCTT, the switch fluorescence ratio is reported as 0.9728 ± 0.0027.
ACTTGTGGCT showed a switch fluorescence ratio of 1.01 ± 0.018.
For ACTTGTTATG, the switch fluorescence ratio was 0.996 ± 0.028.
Work on ACTTGTTTAT yielded a switch fluorescence ratio of 0.981 ± 0.032.
For ACTTGTTTTT, the switch fluorescence ratio was 0.99 ± 0.033.
ACTTTACGGC showed a switch fluorescence ratio of 1.286 ± 0.0091.
ACTTTAGCAG gave a switch fluorescence ratio of 1.034 ± 0.0063.
For ACTTTCAGCC, the switch fluorescence ratio was 1.03 ± 0.017.
ACTTTCGGTT was tested, and the switch fluorescence ratio was 1.003 ± 0.0023.
For ACTTTGATTG, the switch fluorescence ratio was 0.982 ± 0.024.
With ACTTTGCCAC the switch fluorescence ratio was 1.18 ± 0.016.
For ACTTTGCTAG, the switch fluorescence ratio was 1.03 ± 0.024.
ACTTTGGCGT showed a switch fluorescence ratio of 1.03 ± 0.014.
ACTTTGGGTT showed a switch fluorescence ratio of 1.01 ± 0.023.
For ACTTTGGTGG, the switch fluorescence ratio was 1 ± 0.029.
Sequence ACTTTGTATG has a switch fluorescence ratio of 1 ± 0.017.
ACTTTTACTC showed a switch fluorescence ratio of 1.16 ± 0.014.
For ACTTTTGCGG, the switch fluorescence ratio was 1.021 ± 0.0092.
ACTTTTTGGC showed a switch fluorescence ratio of 0.975 ± 0.022.
Sequence ACTTTTTTT has a switch fluorescence ratio of 1 ± 0.0022.
With AGAAAAAGGT the switch fluorescence ratio was 1.01 ± 0.032.
Sequence AGAAAAGCAG has a switch fluorescence ratio of 1.02 ± 0.015.
AGAAAATAGA gave a switch fluorescence ratio of 0.9789 ± 0.0084.
AGAAAATTAG gave a switch fluorescence ratio of 1.02 ± 0.039.
AGAAAATTGT showed a switch fluorescence ratio of 1.01 ± 0.025.
AGAAAATTTT gave a switch fluorescence ratio of 1.03 ± 0.031.
With AGAAACAAAC the switch fluorescence ratio was 1.041 ± 0.0083.
AGAAAGCGCG showed a switch fluorescence ratio of 1.05 ± 0.019.
With AGAAAGGGGC the switch fluorescence ratio was 1.31 ± 0.31.
AGAAAGGGTT showed a switch fluorescence ratio of 0.98 ± 0.022.
AGAAAGGTAT showed a switch fluorescence ratio of 1.11 ± 0.25.
With AGAAAGTCAA the switch fluorescence ratio was 1.0199 ± 1.9e-05.
With AGAAATCGGA the switch fluorescence ratio was 1.038 ± 0.0056.
For AGAACAGCAT, the switch fluorescence ratio was 1.01 ± 0.021.
Work on AGAACAGGTG yielded a switch fluorescence ratio of 3.18 ± 0.27.
AGAACTCACC was tested, and the switch fluorescence ratio was 1.19 ± 0.049.
AGAACTCTTT showed a switch fluorescence ratio of 1.02 ± 0.022.
Work on AGAAGAAGTA yielded a switch fluorescence ratio of 0.9955 ± 0.0035.
AGAAGCTAAG showed a switch fluorescence ratio of 0.996 ± 0.015.
AGAAGGAGGT gave a switch fluorescence ratio of 0.9874 ± 0.0089.
AGAAGGCCGG gave a switch fluorescence ratio of 0.98 ± 0.056.
For AGAAGGCGCG, the switch fluorescence ratio was 1.01 ± 0.038.
With AGAAGGCGGG the switch fluorescence ratio was 0.985 ± 0.029.
With AGAAGGGGAC the switch fluorescence ratio was 1.02 ± 0.026.
Sequence AGAAGGGGG has a switch fluorescence ratio of 0.968 ± 0.022.
With AGAAGGGGGC the switch fluorescence ratio was 0.989 ± 0.062.
Sequence AGAAGGGGGT has a switch fluorescence ratio of 1.02 ± 0.035.
In the case of AGAAGGGTTA, the switch fluorescence ratio is reported as 1.01 ± 0.017.
AGAAGGTATG was tested, and the switch fluorescence ratio was 1.0001 ± 0.0006.
AGAAGTAAGA gave a switch fluorescence ratio of 0.998 ± 0.0065.
Sequence AGAAGTGATA has a switch fluorescence ratio of 0.976 ± 0.023.
AGAAGTGGTC showed a switch fluorescence ratio of 1.01 ± 0.031.
Work on AGAATAATGG yielded a switch fluorescence ratio of 1 ± 0.022.
AGAATCGACG was tested, and the switch fluorescence ratio was 0.993 ± 0.056.
In the case of AGAATCGAGT, the switch fluorescence ratio is reported as 1.01 ± 0.025.
Work on AGAATCTTTC yielded a switch fluorescence ratio of 1.05 ± 0.071.
AGAATGGAGA showed a switch fluorescence ratio of 1 ± 0.013.
In the case of AGAATGGATC, the switch fluorescence ratio is reported as 1.01 ± 0.012.
AGAATGTCGA gave a switch fluorescence ratio of 0.968 ± 0.068.
